{"source": "patent US20250262210A1", "about": "(TRUSTEES OF COLUMBIA UNIVERSITY IN THE CITY OF NEW YORK, published 2025)", "binders": {"B1": {"name": "LZTR1 R810W-FLAG (other, human, UniProt Q8N653 1-840, looked up)", "chain": "MAGPGSTGGQIGAAALAGGARSKVAPSVDFDHSCSDSVEYLTLNFGPFETVHRWRRLPPCDEFVGARRSKHTVVAYKDAIYVFGGDNGKTMLNDLLRFDVKDCSWCRAFTTGTPPAPRYHHSAVVYGSSMFVFGGYTGDIYSNSNLKNKNDLFEYKFATGQWTEWKIEGRLPVARSAHGATVYSDKLWIFAGYDGNARLNDMWTIGLQDRELTCWEEVAQSGEIPPSCCNFPVAVCRDKMFVFSGQSGAKITNNLFQFEFKDKTWTRIPTEHLLRGSPPPPQRRYGHTMVAFDRHLYVFGGAADNTLPNELHCYDVDFQTWEVVQPSSDSEVGGAEVPERACASEEVPTLTYEERVGFKKSRDVFGLDFGTTSAKQPTQPASELPSGRLFHAAAVISDAMYIFGGTVDNNIRSGEMYRFQFSCYPKCTLHEDYGRLWESRQFCDVEFVLGEKEECVQGHVAIVTARSRWLRRKITQARERLAQKLEQEAAPVPREAPGVAAGGARPPLLHVAIREAEARPFEVLMQFLYTDKIKYPRKGHVEDVLLIMDVYKLALSFQLCRLEQLCRQYIEASVDLQNVLVVCESAARLQLSQLKEHCLNFVVKESHFNQVIMMKEFERLSSPLIVEIVRRKQQPPPRTPLDQPVDIGTSLIQDMKAYLEGAGAEFCDITLLLDGHPRPAHKAILAARSSYFEAMFRSFMPEDGQVNISIGEMVPSRQAFESMLRYIYYGEVNMPPEDSLYLFAAPYYYGFYNNRLQAYCKQNLEMNVTVQNVLQILEAADKTQALDMKRHCLHIIVHQFTKVSKLPTLWSLSQQLLLDIIDSLASHISDKQCAELGADI", "notes": "Stably expressed in U87 cells by lentivirus; also called LZTR1-FLAG-R810W; LZTR1 RW; not shown: FLAG tag"}}, "key": {"[1]": {"target": "T1, FHOD1 (human, UniProt Q9Y613 2-1164)", "T1 sequence (looked up)": "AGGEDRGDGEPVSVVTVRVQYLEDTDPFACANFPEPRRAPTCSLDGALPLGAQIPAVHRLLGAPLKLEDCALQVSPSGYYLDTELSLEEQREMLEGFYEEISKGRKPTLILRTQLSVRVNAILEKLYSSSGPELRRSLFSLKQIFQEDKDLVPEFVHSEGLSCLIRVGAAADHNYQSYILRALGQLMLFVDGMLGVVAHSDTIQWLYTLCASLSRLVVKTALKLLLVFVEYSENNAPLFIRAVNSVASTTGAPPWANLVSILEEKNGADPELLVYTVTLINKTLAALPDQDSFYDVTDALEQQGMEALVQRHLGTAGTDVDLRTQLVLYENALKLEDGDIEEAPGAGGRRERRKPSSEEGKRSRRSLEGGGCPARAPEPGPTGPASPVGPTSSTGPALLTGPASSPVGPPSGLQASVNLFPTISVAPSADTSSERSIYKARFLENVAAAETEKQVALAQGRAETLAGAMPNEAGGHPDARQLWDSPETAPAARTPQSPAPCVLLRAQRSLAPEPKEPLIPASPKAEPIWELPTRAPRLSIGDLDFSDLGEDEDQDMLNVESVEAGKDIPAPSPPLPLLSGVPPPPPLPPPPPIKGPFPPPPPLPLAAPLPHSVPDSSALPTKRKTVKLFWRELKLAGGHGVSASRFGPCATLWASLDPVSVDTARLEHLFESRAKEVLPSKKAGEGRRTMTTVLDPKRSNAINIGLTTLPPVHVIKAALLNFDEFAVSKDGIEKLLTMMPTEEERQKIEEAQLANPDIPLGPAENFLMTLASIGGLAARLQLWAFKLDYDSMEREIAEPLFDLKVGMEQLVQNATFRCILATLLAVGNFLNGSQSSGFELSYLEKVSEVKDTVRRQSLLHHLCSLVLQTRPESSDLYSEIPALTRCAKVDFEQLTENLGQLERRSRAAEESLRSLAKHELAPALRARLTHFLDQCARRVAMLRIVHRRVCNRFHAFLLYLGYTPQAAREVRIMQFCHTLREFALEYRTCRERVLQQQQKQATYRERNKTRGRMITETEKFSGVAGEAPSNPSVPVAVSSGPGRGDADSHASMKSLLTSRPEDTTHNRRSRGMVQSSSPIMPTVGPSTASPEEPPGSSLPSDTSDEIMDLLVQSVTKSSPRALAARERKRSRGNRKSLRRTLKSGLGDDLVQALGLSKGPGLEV", "test": "IP/MS, LZTR1 R810W-FLAG, U87", "in_short": "(§1)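 Gel slices were reduced with 5 mM DTT, alkylated with 11 mM IAA and digested overnight at 37° C. with trypsin. Peptides were analysed on an Orbitrap Fusion Tribrid by LC-MS/MS.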"}, "[2]": {"target": "TRIM16 (human, UniProt O95361 1-564, limits assumed)", "test": "IP/MS, LZTR1 R810W-FLAG, U87", "in_short": "as §1"}}, "data": [{"binder": "B1", "values": [{"measurement": "binding result", "setting": "[1]", "value": "binds"}, {"measurement": "binding result", "setting": "[2]", "value": "binds"}]}]}
